Measurements published in article PMC5972919, “A strategy for L-isoleucine dioxygenase screening and 4-hydroxyisoleucine production by resting cells” (Bioengineered, 2017).

Substrate: CC[C@H](C)[C@H](N)C(=O)O
Experiment: HPLC of 4-hydroxyisoleucine after precolumn derivatization; Michaelis-Menten fit
Format: biochemical, Bacillus thuringiensis
Details: apparent, L-Ile 0.02 to 5 mM, 10 mM alpha-ketoglutarate, 5 mM FeSO4, 10 mM ascorbic acid, 100 mM Tris-HCl pH 7.0, 30 °C
Description: HPLC of 4-hydroxyisoleucine after precolumn derivatization; Michaelis-Menten fit on IDO (L-isoleucine dioxygenase)

B1: IDO (L-isoleucine dioxygenase) (Bacillus thuringiensis) (protein)
chain: MKMSGFSIEEKVHEFESKGFLEISNEIFLQEEENHRLLTQAQLDYYNLEDDAYGECRAGSYSRYIKYVDSPDYILDNSNDYFQSKEYNYDDGGKVRQFHSINDSFLYNPLIQNIVRFDTEFAFKTNIIDTSKDLIIGLHQVRYKATKERPSFSSPIWLHKDDEPVVFLHLMNLSNTAIGGDNLIANSPREINQFISLKEPLETLVFGQKVFHAVTPLGTECSTEAFRDILLVTFSYKETK
notes: motif His159-X-Asp161-X50-His212
For B1, which Km is on record?
Its Km is 200 µM.

What about the Vmax of the same protein?
The Vmax was 2.18 µmol/min/mg.

What about the kcat of the same protein?
The kcat was 0.0727 s⁻¹.

What about the kcat/Km of the same protein?
The kcat/Km was 363 M⁻¹ s⁻¹.
